Measured values taken from patent US11254722B2, “Recombinant proteins and uses thereof” (ACADEMIA SINICA, priority 2017, dated 2022).

T1: VEGF (Homo sapiens, UniProt P15692)
T1 construct: purchased R&D Systems
T1 sequence (P15692 27-191 isoform P15692-4): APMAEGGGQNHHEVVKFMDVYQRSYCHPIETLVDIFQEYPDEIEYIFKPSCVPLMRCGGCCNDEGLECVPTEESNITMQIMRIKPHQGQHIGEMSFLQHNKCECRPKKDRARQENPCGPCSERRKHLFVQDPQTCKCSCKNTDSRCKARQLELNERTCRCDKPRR


Experiments:
fibroblasts = experiment: Proliferation induced by PDGF BB in fibroblasts (Table 8); format: cell-based
Description: (§1) For the proliferation assay, cells except for HUVEC were seeded at a density of 1,000 to 6,000 in 96 wells in an assay buffer of DMEM/F12 plus 0.2% BSA and 10 ug/ml transferrin. Chemical inhibitors were added after 16-20 hours after plating; IGF-1 or other growth factors or test chimeras in assay buffer were added at the time of plating or 16-20 hours after plating. 5,000 HUVEC ells were plated in poly-L-lysine coated 96 wells in M199 with 1%/FBS and HEPES. After 3 to 4 days of culture, growth was determined by incubating cells with Alamar blue for 4 to 6 hours and then the fluorescence (RFU) at 544/590 nm was read. For long term proliferation assays, cells were plated in the growth media with 5% or 10% FBS at densities of 500 to 10,000 cells per cm^2 growth area and grown for 7 to 21 days. Inhibitors and effectors were added 1-4 days after plating. Cells were exposed to cisplatin or gemcitabine for two days. Medium was renewed twice weekly. At completion, cells were fixed and then stained with Giemsa.
(§2) The BP3-fc construct inhibited the proliferation of cancer cells that had been stimulated by IGF-1, IGF-2, neuregulin, HGF, and bFGF.

VEGF [1] = target: T1, VEGF; experiment: In vitro proliferation stimulated by VEGF (Table 8); format: cell-based
Description: as §1
The BP3-VEGF-trap-fc (including the IGFBP3 domains, the VEGFR1 domain 2 and VEGFR2 domain 3 (VEGF-trap (22)), and human immunoglobulin Fc region) broadened the binding to include VEGF-A, VEGF-B, and placental growth factor (PIGF). This BP3-VEGF-trap chimera could inhibit the proliferation stimulated by IGF-1, IGF-2, neuregulin, PDGF-BB, HGF, bFGF, VEGF-A, and PIGF (see, Table 8).

cancer cells = experiment: In vitro proliferation of cancer cells stimulated by growth factors (Table 8); format: cell-based
Description: as §1, §2

[2] = system: MCF-7 breast cancer cells; experiment: MCF-7 proliferation assay; format: cell-based; settings: FIG. 5
Description: MCF-7 cells (a breast cancer cell line) were maintained in MEM (GIBCO) plus insulin and NEAA and 10% FBS (Hyclone).
as §1
We next examined the effect of 56662 (BP3/Fc) on the proliferation induced by growth factors that interacted with the IGFBP3. The proliferation of MCF-7 breast cancer cells was induced in serum-free medium by individual growth factors like IGF-1, IGF-2, EGF, TGF-a, Nrgbx, b-FGF, and amphiregulin (FIG. 1).

VEGF [3] = target: T1, VEGF; experiment: Biacore binding to VEGF; settings: Table 5; the kd is very low and difficult to measure
Description: (§3) Biacore binding was performed at David Myszka's laboratory at the University of Utah or at the Genomic Research Center at Academia Sinica. Surfaces of binding protein chimera were made via chemical immobilization on a CM4 chip using standard amine coupling chemistry. […] Excess surface carboxyl activated sites on all four flow cells was blocked using the doubly positively charged species ethylenediamine. Binding experiments (but not immobilizations) in HBS-P (10 mM HEPES pH 7.4, 150 mM NaCl, 0.05% P20), The HBS-P was supplemented with BSA at 0.2 mg/mL, or HBS-P was supplemented with 500 mM NaCl (650 mM NaCl, final concentration). Analytes were also reconstituted in the corresponding buffer. All experiments were performed at 25° C. 1/150 dilutions of phosphoric acid were used to regenerate IGFBP3-Fc surfaces and a sequence of 3 M MgCl2 followed by 5 M GuCl was used to regenerate surfaces immobilized with growth factor. Dissociation constants reported below used immobilized binding protein unless noted. Differences between binding constants may be expected between growth factor immobilization and chimera immobilization.

HUVEC cells = experiment: HUVEC proliferation assay; format: cell-based
How it was run: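 HUVEC, 5,000 per well, plated on poly-L-lysine in M199 with 1% FBS and HEPES. After 3 to 4 days of culture, growth read by Alamar blue incubation for 4 to 6 hours, fluorescence (RFU) at 544/590 nm.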

TGF-α = target: T2, TGF-α (Homo sapiens, UniProt P01135); experiment: Biacore binding to TGF-α; settings: Table 5
T2 construct: purchased R&D Sciences or SinoBiologicals
Description: as §3

hep3B cells = experiment: hep3B proliferation assay; format: cell-based, human
How it was run: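 Cells seeded at 1,000 to 6,000 per well in DMEM/F12 with 0.2% BSA and 10 ug/ml transferrin. Inhibitors added 16-20 h after plating; IGF-1 or other growth factors at plating or 16-20 h later. After 3 to 4 days, growth read by Alamar blue fluorescence at 544/590 nm after 4 to 6 h.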

T2 sequence (P01135 40-89 limits assumed): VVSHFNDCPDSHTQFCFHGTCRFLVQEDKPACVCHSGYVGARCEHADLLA

| inhibition of proliferation stimulated by VEGF (VEGF [1]) | Dissociation Constants, VEGF (VEGF [3]) | Dissociation Constants, TGF-α (TGF-α) | Molecule | inhibition of proliferation stimulated by PDGF BB (fibroblasts) | inhibition of proliferation stimulated by HGF (cancer cells) | inhibition of proliferation stimulated by IGF-1 (cancer cells) | inhibition of proliferation stimulated by IGF-2 (cancer cells) | inhibition of proliferation stimulated by bFGF (cancer cells) | inhibition of proliferation stimulated by nrgbx (cancer cells) | inhibition of IGF-1-induced proliferation of MCF-7, compared to 56662 and chimera B [2] | inhibition of VEGF-induced proliferation of HUVEC cells (HUVEC cells; FIG. 6, FIG. 13) | inhibition of HUVEC proliferation induced by IGF, bFGF, HGF or a combination (HUVEC cells; FIG. 13) | increase of inhibitory activity of erlotinib (hep3B cells; 100 nM chimera h3t33Fc, hep3B) | inhibition of hep3B cells treated with erlotinib (hep3B cells; combination with erlotinib, FIG. 15, FIG. 16A) |
| --- | --- | --- | --- | --- | --- | --- | --- | --- | --- | --- | --- | --- | --- | --- |
| inh | – | – | VEGF-trap: the VEGFR1 domain 2 and VEGFR2 domain 3 (VEGF-trap (22)) [reference compound] | no | no | no | no | no | no | – | – | – | – | – |
| – | no binding | no binding | h3t33fc: IGFBP3 with IGFBP3 linker deletion 1-Fc, SEQ ID NO: 8 (protein) MSEVPVARVWLVLLLLTVQVGVTAGGASSAGLGPVVRCEPCDARALAQCAPPPAVCAELVREPGCGCCLTCALSEGQPCGIYTERCGSGLRCQPSPDEARPLQALLDGRGLCVNASAVSKGHAKDSQRYKVDYESQSTDTQNFSSESKRETEYGPCRREMEDTLNHLKFLNVLSPRGVHIPNCDKKGFYKKKQCRPSKGRKRGFCWCVDKYGQPLPGYTTKGKEDVHCYSMQSKVECPPCPAPPVAGPSVFLFPPKPKDQLMISRTPEVTCVVVDVSHEDPEVKFNWYVDGVEVHNAKTKPREEQYNSTYRVVSVLTVLHQDWLNGKEYKCKVSNKGLPSSIEKTISKAKGQPREPQVYTLPPSREEMTKNQVSLTCLVKGFYPSDIAVEWESNGQPENNYKTTPPVLDSDGSFFLYSKLTVDKSRWQQGNVFSCSVMHEGLHNHYTQKSLSLSPGK | – | – | – | – | – | – | a smaller EC50 and a higher maximal inhibition | did not inhibit | inhibited | about 100 fold | synergistically inhibited |
